Measured values taken from doi:10.1101/2025.06.11.659033 (bioRxiv, 2025).
Where two headings read alike, the source gives them in different places.

B1: HDPpf-N4 (Δ37N, 3 C-terminal residues deleted) (domain or fragment, Plasmodium falciparum, UniProt Q8IL04 38-202, looked up)
chain: VYWCFEHKPVKRTIINLIYSHNELKIFSNLLNHPTVGSSLIHELSLDGPYTAFFPSNEAMQLINIESFNKLYNDENKLSEFVLNHVTKEYWLYRDLYGSSYQPWLMYNEKREAPEKLRNLLNNDLIVKIEGEFKHCNHSIYLNGSKIIRPNMKCHNGVVHIVDKP
B2: HDPpf-C10 (Δ44N, C-terminal 6His) (domain or fragment, Plasmodium falciparum, UniProt Q8IL04 45-205, looked up)
chain: KPVKRTIINLIYSHNELKIFSNLLNHPTVGSSLIHELSLDGPYTAFFPSNEAMQLINIESFNKLYNDENKLSEFVLNHVTKEYWLYRDLYGSSYQPWLMYNEKREAPEKLRNLLNNDLIVKIEGEFKHCNHSIYLNGSKIIRPNMKCHNGVVHIVDKPIIF

Experiments:
SEC [1] = target: the molecule itself; assay: SEC
SEC [2] = target: the molecule itself; assay: SEC; remark: listed apart in the source

| Protein | stoichiometry N (SEC [1]) | stoichiometry N (SEC [2]) |
| --- | --- | --- |
| B1 | 2 |  |
| B2 |  | 2 |
